Assay results taken from patent US20200138864A1 (CRAGE MEDICAL, published 2020).
Changes are numbered by the printed parent chain.

B1: antigen binding unit 2 (ABU2) (scFv)
scFv: GVQLVESGAEVKKPGASVKVSCKASGYTFTELSMHWVRQAPGKGLEWMGLVDPEDGETIYAEKFQGRVTITADTSTDTAYMELSSLRSEDTAVYYCATDLAAGTNDYWGKGTLVTVSSGGGGSGGGGSGGGGSQAVVTQEPSVTVSPGGTVTLTCGSDTGAVTSGHYPYWFQQKPGQAPRTLIYDTSNKHSWTPARFSGSLLGGKAALTLSGAQPDDEADYYCLLSYSGEWVFGGGTKVTVL
notes: also called parent ABU2; parental ABU2
B2: ABU3 (ScFv_Fc) (Fc fusion, not shown: a dimerising Fc or GST)
scFv: B1 scFv with T159S, A161P, S164R, Y184D, N188R
notes: The format is printed only on the sheet
B3: ABU4 (scFv)
scFv: B1 scFv with D52V, E54A
B4: ABU5 (scFv)
scFv: B1 scFv with D52V, E54D
B5: ABU2 (ScFv_Fc) (Fc fusion, not shown: a dimerising Fc or GST)
scFv: B1 scFv
notes: The format is printed only on the sheet; also called parent ABU2 as scFv-Fc

Assays:
[1] = biological target: T1, reference peptide RMFS1 complexed with HLA on T2 cells (T2/RMFS1); assay: flow cytometry on T2/RMFS1 cells
T1 construct: whole, on cells

[2] = biological target: T2, reference peptide RMFS2 complexed with HLA on T2 cells (T2/RMFS2); assay: flow cytometry on T2/RMFS2 cells
T2 construct: whole, on cells

[3] = biological target: T3, RMF/HLA.A0201 complex (WT1 peptide RMF complexed with recombinant HLA.A0201-BSP and human β2m) (human, labeled with a biotinylation kit (BirA) on the BSP); assay: SPR (Biacore T200), 1:1 Langmuir fit
T3 construct: also called RMF/HLA complex; WT1 peptide (RMF) complexed with HLA; not shown: biotin protein ligase BirA substrate peptide (BSP)

[4] = biological target: T3, RMF/HLA.A0201 complex (WT1 peptide RMF …); assay: ELISA with 2.5, 0.5 and 0.2 ug/ml RMF/HLA complex, scFv clone

Binder | Kd [3] | binding result [4] | also measured
B1 |  |  | binding result [1]: no binding; binding result [2]: no binding
B2 | 0.0467 nM |  | 
B3 |  | binds | 
B4 |  | binds | 
B5 | 1.47 nM |  | 
